Where “and” joins values, the source holds several entries; their conditions need not be identical. Equal entries are not always repeated. Where two headings read alike, the source gives them in different places.
Legend:
[1] = molecular target: HIV-1 Env of KER2008.12.SG3 pseudovirus (clade A) (HIV-1); assay: cell-based or functional assay
[2] = molecular target: HIV-1 Env of ZM106.9.SG3 pseudovirus (clade C) (HIV-1); assay: cell-based or functional assay
[3] = molecular target: HIV-1 Env of CNE31.SG3 pseudovirus (clade C) (HIV-1); assay: cell-based or functional assay
[4] = molecular target: HIV-1 Env of TH966.8.SG3 pseudovirus (clade AE) (HIV-1); assay: cell-based or functional assay
[5] = molecular target: HIV-1 Env of PVO.04.SG3 pseudovirus (clade B) (HIV-1); assay: cell-based or functional assay
[6] = molecular target: T1, HIV-1 Env of 6095.V1.C10.SG3 pseudovirus (clade ACD) (HIV-1); assay: cell-based or functional assay
[7] = molecular target: T2, HIV-1 Env of YU2.DG.SG3 pseudovirus (clade B) (HIV-1, UniProt P35961 32-843); assay: cell-based or functional assay
[8] = molecular target: HIV-1 Env of ZM215.8.SG3 pseudovirus (clade C) (HIV-1); assay: cell-based or functional assay
[9] = molecular target: HIV-1 Env of KER2008.12.SG3 pseudovirus (clade A) (HIV-1); assay: cell-based or functional assay; remark: listed apart in the source
[10] = molecular target: HIV-1 Env of ZM106.9.SG3 pseudovirus (clade C) (HIV-1); assay: cell-based or functional assay; remark: listed apart in the source
[11] = molecular target: HIV-1 Env of CNE31.SG3 pseudovirus (clade C) (HIV-1); assay: cell-based or functional assay; remark: listed apart in the source
[12] = molecular target: HIV-1 Env of TH966.8.SG3 pseudovirus (clade AE) (HIV-1); assay: cell-based or functional assay; remark: listed apart in the source
[13] = molecular target: HIV-1 Env of PVO.04.SG3 pseudovirus (clade B) (HIV-1); assay: cell-based or functional assay; remark: listed apart in the source
[14] = molecular target: HIV-1 Env of 6101.10.SG3 pseudovirus (clade B) (HIV-1); assay: cell-based or functional assay
[15] = molecular target: T1, HIV-1 Env of 6095.V1.C10.SG3 …; assay: cell-based or functional assay; remark: listed apart in the source
[16] = molecular target: T2, HIV-1 Env of YU2.DG.SG3 pseudovirus …; assay: cell-based or functional assay; remark: listed apart in the source
[17] = molecular target: HIV-1 Env of ZM215.8.SG3 pseudovirus (clade C) (HIV-1); assay: cell-based or functional assay; remark: listed apart in the source
[18] = molecular target: HIV-1 Env of KER2008.12.SG3 pseudovirus (clade A) (HIV-1); assay: cell-based or functional assay; remark: listed apart in the source
[19] = molecular target: HIV-1 Env of ZM106.9.SG3 pseudovirus (clade C) (HIV-1); assay: cell-based or functional assay; remark: listed apart in the source
[20] = molecular target: HIV-1 Env of CNE31.SG3 pseudovirus (clade C) (HIV-1); assay: cell-based or functional assay; remark: listed apart in the source
[21] = molecular target: HIV-1 Env of TH966.8.SG3 pseudovirus (clade AE) (HIV-1); assay: cell-based or functional assay; remark: listed apart in the source
[22] = molecular target: HIV-1 Env of PVO.04.SG3 pseudovirus (clade B) (HIV-1); assay: cell-based or functional assay; remark: listed apart in the source
[23] = molecular target: HIV-1 Env of 6101.10.SG3 pseudovirus (clade B) (HIV-1); assay: cell-based or functional assay; remark: listed apart in the source
MPER peptide = molecular target: T3, MPER peptide (HIV-1); assay: MPER peptide binding assay (method not given)
T3 construct: also called gp41 MPER peptide

B1: 10E8 variant 4 (H6-511-4mut VH + rL3-6mut VL) (antibody, V domains shown)
VH: EVRLVESGGGLVKPGGSLRLSCSASGFDFDNAWMTWVRQPPGKGLEWVGRITGPGEGWSVDYAESVKGRFTISRDNTKNTLYLEMNNVRTEDTGYYFCARTGKYYDFWSGYPPGEEYFQDWGQGTLVIVSS
VL: ASELTQDPAVSVALKQTVTITCRGDSLRSHYASWYQKKPGQAPVLLFYGKNNRPSGIPDRFSGSASGNRASLTITGAQAEDEADYYCSSRDKSGSRLSVFGGGTKLTVL
IC50, pseudovirus neutralization [1]: > 50 µg/mL
IC50, pseudovirus neutralization [2]: > 50 µg/mL
IC50, pseudovirus neutralization [3]: 1.16 µg/mL
IC50, pseudovirus neutralization [4]: 0.036 µg/mL and 0.021 µg/mL
IC50, pseudovirus neutralization [5]: 2.39 µg/mL and 1.13 µg/mL
IC50, pseudovirus neutralization [6]: 0.004 µg/mL
IC80, pseudovirus neutralization [6]: 0.015 µg/mL
IC50, pseudovirus neutralization [7]: 1.49 µg/mL
IC80, pseudovirus neutralization [7]: 6.33 µg/mL
IC50, pseudovirus neutralization [8]: 0.122 µg/mL
IC80, pseudovirus neutralization [8]: 0.502 µg/mL
IC50, pseudovirus neutralization [9]: > 50 µg/mL
IC80, pseudovirus neutralization [9]: > 50 µg/mL
IC50, pseudovirus neutralization [10]: > 50 µg/mL
IC80, pseudovirus neutralization [10]: > 50 µg/mL
IC50, pseudovirus neutralization [11]: 1.32 µg/mL
IC80, pseudovirus neutralization [11]: 4.04 µg/mL
IC50, pseudovirus neutralization [12]: 0.056 µg/mL
IC80, pseudovirus neutralization [12]: 0.291 µg/mL
IC50, pseudovirus neutralization [13]: 3.07 µg/mL
IC80, pseudovirus neutralization [13]: 11.9 µg/mL
IC50, pseudovirus neutralization [14]: 0.052 µg/mL
IC80, pseudovirus neutralization [14]: 0.263 µg/mL
IC50, pseudovirus neutralization [15]: 0.004 µg/mL
IC80, pseudovirus neutralization [15]: 0.021 µg/mL
IC50, pseudovirus neutralization [16]: 0.668 µg/mL
IC80, pseudovirus neutralization [16]: 5.32 µg/mL
IC50, pseudovirus neutralization [17]: 0.042 µg/mL
IC80, pseudovirus neutralization [17]: 0.326 µg/mL
IC50, pseudovirus neutralization [18]: > 50 µg/mL
IC80, pseudovirus neutralization [18]: > 50 µg/mL
IC50, pseudovirus neutralization [19]: > 50 µg/mL
IC80, pseudovirus neutralization [19]: > 50 µg/mL
IC50, pseudovirus neutralization [20]: 1.74 µg/mL
IC80, pseudovirus neutralization [20]: 4.85 µg/mL
IC50, pseudovirus neutralization [21]: 0.026 µg/mL
IC80, pseudovirus neutralization [21]: 0.169 µg/mL
IC50, pseudovirus neutralization [22]: 0.894 µg/mL
IC80, pseudovirus neutralization [22]: 8 µg/mL
IC50, pseudovirus neutralization [23]: 0.011 µg/mL
IC80, pseudovirus neutralization [23]: 0.09 µg/mL

B2: 10E8v4-DS (VH Y100eC and VL S30C substitutions) (antibody, V domains shown)
VH: EVRLVESGGGLVKPGGSLRLSCSASGFDFDNAWMTWVRQPPGKGLEWVGRITGPGEGWSVDYAESVKGRFTISRDNTKNTLYLEMNNVRTEDTGYYFCARTGKYYDFWSGCPPGEEYFQDWGQGTLVIVSS
VL: ASELTQDPAVSVALKQTVTITCRGDSLRCHYASWYQKKPGQAPVLLFYGKNNRPSGIPDRFSGSASGNRASLTITGAQAEDEADYYCSSRDKSGSRLSVFGGGTKLTVL
fold tighter binding than 10E8v4 (MPER peptide): 2 fold
IC50, pseudovirus neutralization [15]: 0.002 µg/mL
IC80, pseudovirus neutralization [15]: 0.017 µg/mL
IC50, pseudovirus neutralization [16]: 0.275 µg/mL
IC80, pseudovirus neutralization [16]: 2.44 µg/mL
IC50, pseudovirus neutralization [17]: 0.208 µg/mL
IC80, pseudovirus neutralization [17]: 0.798 µg/mL
IC50, pseudovirus neutralization [18]: > 50 µg/mL
IC80, pseudovirus neutralization [18]: > 50 µg/mL
IC50, pseudovirus neutralization [19]: > 50 µg/mL
IC80, pseudovirus neutralization [19]: > 50 µg/mL
IC50, pseudovirus neutralization [20]: 2.28 µg/mL
IC80, pseudovirus neutralization [20]: 6.48 µg/mL
IC50, pseudovirus neutralization [21]: 0.092 µg/mL
IC80, pseudovirus neutralization [21]: 0.345 µg/mL
IC50, pseudovirus neutralization [22]: 2.53 µg/mL
IC80, pseudovirus neutralization [22]: 10.1 µg/mL
IC50, pseudovirus neutralization [23]: 2.41 µg/mL
IC80, pseudovirus neutralization [23]: 22.2 µg/mL

B3: 10E8v4 S100cW-DS (antibody, V domains shown)
VH: EVRLVESGGGLVKPGGSLRLSCSASGFDFDNAWMTWVRQPPGKGLEWVGRITGPGEGWSVDYAESVKGRFTISRDNTKNTLYLEMNNVRTEDTGYYFCARTGKYYDFWWGCPPGEEYFQDWGQGTLVIVSS
VL: ASELTQDPAVSVALKQTVTITCRGDSLRCHYASWYQKKPGQAPVLLFYGKNNRPSGIPDRFSGSASGNRASLTITGAQAEDEADYYCSSRDKSGSRLSVFGGGTKLTVL
IC50, pseudovirus neutralization [15]: 0.002 µg/mL
IC80, pseudovirus neutralization [15]: 0.013 µg/mL
IC50, pseudovirus neutralization [16]: 0.213 µg/mL
IC80, pseudovirus neutralization [16]: 2.2 µg/mL
IC50, pseudovirus neutralization [17]: 0.037 µg/mL
IC80, pseudovirus neutralization [17]: 0.245 µg/mL
IC50, pseudovirus neutralization [18]: > 50 µg/mL
IC80, pseudovirus neutralization [18]: > 50 µg/mL
IC50, pseudovirus neutralization [19]: > 50 µg/mL
IC80, pseudovirus neutralization [19]: > 50 µg/mL
IC50, pseudovirus neutralization [20]: 0.806 µg/mL
IC80, pseudovirus neutralization [20]: 2.93 µg/mL
IC50, pseudovirus neutralization [21]: 0.019 µg/mL
IC80, pseudovirus neutralization [21]: 0.092 µg/mL
IC50, pseudovirus neutralization [22]: 0.331 µg/mL
IC80, pseudovirus neutralization [22]: 3.67 µg/mL
IC50, pseudovirus neutralization [23]: 1.22 µg/mL
IC80, pseudovirus neutralization [23]: 10.1 µg/mL

From patent US20190077849A1 (US Dept. of Health and Human Services, published 2019)
